Experimental data from article PMC11853100 (2025).

Target: T1, Pneumolysin (Ply) (Streptococcus pneumoniae, UniProt Q04IN8)
T1 chain: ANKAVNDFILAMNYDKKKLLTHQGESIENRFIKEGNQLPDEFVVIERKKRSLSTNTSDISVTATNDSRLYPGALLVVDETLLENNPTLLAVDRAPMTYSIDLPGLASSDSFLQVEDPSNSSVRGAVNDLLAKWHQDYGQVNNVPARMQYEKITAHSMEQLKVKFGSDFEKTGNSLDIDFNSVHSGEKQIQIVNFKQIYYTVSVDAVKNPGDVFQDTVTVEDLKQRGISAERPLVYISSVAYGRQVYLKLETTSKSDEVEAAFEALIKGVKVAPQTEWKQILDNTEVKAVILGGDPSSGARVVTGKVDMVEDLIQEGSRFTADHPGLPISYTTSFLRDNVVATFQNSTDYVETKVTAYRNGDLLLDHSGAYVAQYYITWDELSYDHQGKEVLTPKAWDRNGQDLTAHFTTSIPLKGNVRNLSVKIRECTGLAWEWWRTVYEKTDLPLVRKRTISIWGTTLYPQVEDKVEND
Test: ITC; given as Ka

B1: SpnPrsA (protein)
chain: CSKGSEGADLISMKGDVITEHQFYEQVKNNPSAQQVLLNMTIQKVFEKQYGSELDDKEVDDTIAEEKKQYGENYQRVLSQAGMTLETRKAQIRTSKLVELAVKKVAEAELTDEAYKKAFDEYTPDVTAQIIRLNNEDKAKEVLEKAKAEGADFAQLAKDNSTDEKTKENGGEITFDSASTEVPEQVKKAAFALDVDGVSDVITATGTQAYSSQYYIVKLTKKTEKSSNIDDYKEKLKTVILTQKQNDSTFVQSIIGKELQAANIKVKDQAFQNIFTQYIGGGDSSSSSSTSNE
  Kd: 119 nM
